{"source": "patent US20210380703A1", "about": "(RIGEL PHARMACEUTICALS, published 2021)", "binders": {"B1": {"name": "372_F07 (antibody, V domains shown)", "VH": "EVQLLESGGGLVQPGGSLRLSCAASGFTFDDYSMNWVRQAPGKGLEWVAGINYNSGYKGYADSVKGRFTISRDNSKNTLYLQMNSLRAEDTAVYYCARSATWHDTHLDYWGQGTLVTVSS", "VL": "DIQMTQSPSSLSASVGDRVTITCRASQSILTYLNWYQQKPGKAPKLVIYAATSRASGVPSRFSGSGSGTDFTLTISSLQPEDFATYYCQQSYELPLTFGGGTKVEIK", "notes": "VH/VL only"}, "B2": {"name": "373_B03 (antibody, V domains shown)", "VH": "B1 VH with D30S, D31S, G59S", "VL": "B1 VL with R54L, E93D, L94N", "notes": "VH/VL only"}, "B3": {"name": "373_B08 (antibody, V domains shown)", "VH": "B1 VH with D31S, G50N", "VL": "B1 VL with R54L, L94N", "notes": "VH/VL only"}, "B4": {"name": "373_B11 (antibody, V domains shown)", "VH": "B1 VH with D30S, D31S, G50N", "VL": "B1 VL with T31S, V47L, E93D, L94N", "notes": "VH/VL only"}, "B5": {"name": "373_C09 (antibody, V domains shown)", "VH": "B1 VH with D31S, G59S", "VL": "B1 VL", "notes": "VH/VL only"}, "B6": {"name": "373_E02 (antibody, V domains shown)", "VH": "B1 VH with D31S, S33G, N35H, A49S, S55G", "VL": "not shown", "notes": "VH/VL only"}, "B7": {"name": "373_E03 (antibody, V domains shown)", "VH": "B1 VH with D31S, S33G, A49S, G50N, S55G, K58T, H106A", "VL": "B1 VL with T31S, L33V, E93D", "notes": "VH/VL only"}, "B8": {"name": "373_E04 (antibody, V domains shown)", "VH": "B1 VH with D31S, S55G, K58T, G59S", "VL": "B1 VL with L33V, V47L, E93N, L94S", "notes": "VH/VL only"}, "B9": {"name": "373_E06 (antibody, V domains shown)", "VH": "B1 VH with D31S, G59S", "VL": "B1 VL with T31R, V47L, R54L, A55H, E93D, L94N", "notes": "VH/VL only"}, "B10": {"name": "373_F03 (antibody, V domains shown)", "VH": "B1 VH with D31S, G50N, K58T", "VL": "B1 VL with L33V, V47L, A55H, E93D, L94S", "notes": "VH/VL only"}, "B11": {"name": "373_G05 (antibody, V domains shown)", "VH": "B1 VH with D30S, D31S, S55G, K58T, G59S", "VL": "B1 VL with T31S, V47L, R54L", "notes": "VH/VL only"}, "B12": {"name": "373_H06 (antibody, V domains shown)", "VH": "B1 VH with D30S, D31S, S33G, N35H, S55G, K58T, G59S", "VL": "B1 VL with L30I, T31S, L33V, V47L, R54L, E93D", "notes": "VH/VL only"}, "B13": {"name": "373_H10 (antibody, V domains shown)", "VH": "B1 VH with D30S, D31S, S55G, K58T", "VL": "B1 VL with T31S, L33V, V47L, E93S", "notes": "VH/VL only"}, "B14": {"name": "374_A11 (antibody, V domains shown)", "VH": "B1 VH with D30S, G50N", "VL": "B1 VL with T31S, L33V, E93S, L94S", "notes": "VH/VL only"}, "B15": {"name": "374_B09 (antibody, V domains shown)", "VH": "B1 VH with D30S, D31S, A49S, S55G, G59S", "VL": "B1 VL with L30V, T31R, R54L", "notes": "VH/VL only"}, "B16": {"name": "374_C02 (antibody, V domains shown)", "VH": "B1 VH with D31S, A49S, S55G, K58T", "VL": "B1 VL with T31S, V47L, A55H, E93D, L94S", "notes": "VH/VL only"}, "B17": {"name": "374_C04 (antibody, V domains shown)", "VH": "B1 VH with D30S, D31S, G59S", "VL": "B1 VL with V47L, T52S, R54L, A55Q", "notes": "VH/VL only"}, "B18": {"name": "374_C05 (antibody, V domains shown)", "VH": "B1 VH with D31S, G59S", "VL": "B1 VL with L30I, T31R, E93D, L94N", "notes": "VH/VL only"}, "B19": {"name": "374_C08 (antibody, V domains shown)", "VH": "B1 VH with D31S, S33G, A49S, G59S, H106A", "VL": "B1 VL with T31S, L33V, V47L, A51V, E93D, L94S", "notes": "VH/VL only"}, "B20": {"name": "374_C11 (antibody, V domains shown)", "VH": "B1 VH with D30S, D31S", "VL": "B1 VL with V47L, L94S", "notes": "VH/VL only"}, "B21": {"name": "374_D02 (antibody, V domains shown)", "VH": "B1 VH with D31S, K58T, G59S", "VL": "B1 VL with L30S, L33V, V47L, A51V, R54L, E93D, L94S", "notes": "VH/VL only"}, "B22": {"name": "374_D12 (antibody, V domains shown)", "VH": "B1 VH with D31S, A49S, S55G, K58T", "VL": "B1 VL with L30V, T31S, L33V, E93D", "notes": "VH/VL only"}, "B23": {"name": "374_E02 (antibody, V domains shown)", "VH": "B1 VH with D30S, D31S, A49S, S55G, K58T, G59S, T101N, H106A", "VL": "B1 VL with T31S, V47L, R54L, E93D", "notes": "VH/VL only"}, "B24": {"name": "374_E05 (antibody, V domains shown)", "VH": "B1 VH with D30S, D31S, S55G, K58T, G59S, T101N, H106A", "VL": "B1 VL with T31S, Y32F, L33V, E93N", "notes": "VH/VL only"}, "B25": {"name": "374_E07 (antibody, V domains shown)", "VH": "B1 VH with D30S, S55G, K58T, G59S, T101N, H106A", "VL": "B1 VL with L30I, L33V, E93N, L94T", "notes": "VH/VL only"}, "B26": {"name": "374_E08 (antibody, V domains shown)", "VH": "B1 VH with D30S, D31S, S33G, S55G, G59S, T101N, H106A", "VL": "B1 VL with T31S, V47L, A55H, E93D", "notes": "VH/VL only"}}, "note": "Numbering of substitutions follows the chain as printed. Also: test concentration or dose not given here.", "data": [{"target": "human ACVR2A (human, UniProt P27037 20-135, limits assumed)", "sequence (P27037 20-135 limits assumed)": "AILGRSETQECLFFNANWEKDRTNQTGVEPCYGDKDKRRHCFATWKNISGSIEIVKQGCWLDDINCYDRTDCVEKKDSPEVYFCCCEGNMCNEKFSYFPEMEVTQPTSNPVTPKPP", "assay": "ELISA", "method_in_brief": "(§1)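 Binding signal was read by ELISA after ACVR2A-specific monoclonal antibodies were tested against human ACVR2A and mouse ACVR2A, with human Fc as the negative control.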", "units": {"optical density": "OD"}, "values": [{"binder": "B1", "optical density": 3.25}, {"binder": "B2", "optical density": 3.64}, {"binder": "B3", "optical density": 3.7}, {"binder": "B4", "optical density": 3.72}, {"binder": "B5", "optical density": 3.64}, {"binder": "B6", "optical density": 3.61}, {"binder": "B7", "optical density": 3.46}, {"binder": "B8", "optical density": 3.56}, {"binder": "B9", "optical density": 3.71}, {"binder": "B10", "optical density": 3.65}, {"binder": "B11", "optical density": 3.61}, {"binder": "B12", "optical density": 3}, {"binder": "B13", "optical density": 3.24}, {"binder": "B14", "optical density": 3.65}, {"binder": "B15", "optical density": 3.62}, {"binder": "B16", "optical density": 3.68}, {"binder": "B17", "optical density": 3.74}, {"binder": "B18", "optical density": 3.7}, {"binder": "B19", "optical density": 3.29}, {"binder": "B20", "optical density": 3.64}, {"binder": "B21", "optical density": 3.06}, {"binder": "B22", "optical density": 3.55}, {"binder": "B23", "optical density": 3.23}, {"binder": "B24", "optical density": 3.56}, {"binder": "B25", "optical density": 3.63}, {"binder": "B26", "optical density": 3.5}]}, {"target": "mouse ACVR2A (mouse, UniProt P27038 20-135, limits assumed)", "sequence (P27038 20-135 limits assumed)": "as the sequence (P27037 20-135 limits assumed) above, with K20R, V73I counted along it", "assay": "ELISA", "method_in_brief": "as §1", "units": {"optical density": "OD"}, "values": [{"binder": "B1", "optical density": 3.24}, {"binder": "B2", "optical density": 3.62}, {"binder": "B3", "optical density": 3.66}, {"binder": "B4", "optical density": 3.65}, {"binder": "B5", "optical density": 3.6}, {"binder": "B6", "optical density": 3.64}, {"binder": "B7", "optical density": 3.46}, {"binder": "B8", "optical density": 3.55}, {"binder": "B9", "optical density": 3.64}, {"binder": "B10", "optical density": 3.6}, {"binder": "B11", "optical density": 3.62}, {"binder": "B12", "optical density": 3.15}, {"binder": "B13", "optical density": 3.25}, {"binder": "B14", "optical density": 3.72}, {"binder": "B15", "optical density": 3.65}, {"binder": "B16", "optical density": 3.64}, {"binder": "B17", "optical density": 3.74}, {"binder": "B18", "optical density": 3.69}, {"binder": "B19", "optical density": 3.42}, {"binder": "B20", "optical density": 3.59}, {"binder": "B21", "optical density": 3.2}, {"binder": "B22", "optical density": 3.28}, {"binder": "B23", "optical density": 3.33}, {"binder": "B24", "optical density": 3.57}, {"binder": "B25", "optical density": 3.58}, {"binder": "B26", "optical density": 3.52}]}, {"target": "T1, biotinylated goat anti-human kappa light chain", "T1 construct": "Positive control of the ELISA", "assay": "ELISA; positive control", "method_in_brief": "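mAb binding by ELISA; antigens: hu ACVR2A, mu ACVR2A; pos ctrl biotinylated goat anti-hu kappa LC; neg ctrl hu Fc.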", "units": {"optical density": "OD"}, "values": [{"binder": "B1", "optical density": 3.4}, {"binder": "B2", "optical density": 3.16}, {"binder": "B3", "optical density": 3.22}, {"binder": "B4", "optical density": 3.22}, {"binder": "B5", "optical density": 3.22}, {"binder": "B6", "optical density": 2.92}, {"binder": "B7", "optical density": 3.25}, {"binder": "B8", "optical density": 3.3}, {"binder": "B9", "optical density": 3.22}, {"binder": "B10", "optical density": 3.21}, {"binder": "B11", "optical density": 3.22}, {"binder": "B12", "optical density": 3.3}, {"binder": "B13", "optical density": 3.19}, {"binder": "B14", "optical density": 2.81}, {"binder": "B15", "optical density": 3.19}, {"binder": "B16", "optical density": 3.06}, {"binder": "B17", "optical density": 3.17}, {"binder": "B18", "optical density": 3.18}, {"binder": "B19", "optical density": 3.18}, {"binder": "B20", "optical density": 3.21}, {"binder": "B21", "optical density": 2.99}, {"binder": "B22", "optical density": 3.09}, {"binder": "B23", "optical density": 3.18}, {"binder": "B24", "optical density": 3.18}, {"binder": "B25", "optical density": 3.2}, {"binder": "B26", "optical density": 3.26}]}]}
